Assay results: the Human Domainome abundance scans (Beltran et al. 2025)
± gives the uncertainty stated by the source.

B1: Serine/threonine-protein kinase A-Raf, residues 21 to 89; numbered along this chain, P10398 (parent)
chain: VKVYLPNKQRTVVTVRDGMSVYDSLDKALKVRGLNQDCCVVYRLIKGRKTVTAWDTAIAPLDGEELIVE

Variants of: B1
Experiment: abundance fitness (aPCA) (normalised: wild type 0, dead -1); higher = more abundant; growth selection in yeast, the domain comes from the species named
Settings: Homo sapiens

Abundance fitness, by site and new letter:
G33: Q -0.576 ± 0.12, R -0.712 ± 0.081, E -0.26 ± 0.22, D -0.416 ± 0.2, V -0.573 ± 0.069, K -0.41 ± 0.16, S -0.525 ± 0.089, P -0.953 ± 0.24, C -0.694 ± 0.2, L -0.942 ± 0.2, N -0.473 ± 0.14, Y -0.894 ± 0.32, M -0.037 ± 0.091, A -0.546 ± 0.12, T -0.626 ± 0.2
L34: Y -0.459 ± 0.22, P -0.833 ± 0.15, V -1 ± 0.15, F -0.074 ± 0.14, W -0.27 ± 0.055, T -1.05 ± 0.23, M -0.135 ± 0.059, G -1.1 ± 0.15, C -0.644 ± 0.13, R -1 ± 0.12, S -0.835 ± 0.17, A -1.02 ± 0.17, H -0.789 ± 0.22
V40: P -0.925 ± 0.2, M -0.058 ± 0.098, E -0.253 ± 0.11, G -0.857 ± 0.094, R -0.131 ± 0.051, A -0.021 ± 0.055, L -0.259 ± 0.057, T -0.164 ± 0.072, K -0.117 ± 0.13, C -0.087 ± 0.072, S -0.321 ± 0.05, F -0.828 ± 0.14, I -0.09 ± 0.15, Y -0.273 ± 0.093, Q 0.073 ± 0.14
L25: F -0.903 ± 0.24, A -0.919 ± 0.12, T -0.978 ± 0.16, S -0.891 ± 0.11, D -0.717 ± 0.11, E -0.944 ± 0.18, I -0.573 ± 0.17, H -1.06 ± 0.14, V -0.54 ± 0.052, W -0.971 ± 0.19, C -0.427 ± 0.18, R -0.924 ± 0.082, Q -0.961 ± 0.17, K -0.542 ± 0.09, G -0.697 ± 0.1
V41: W -0.549 ± 0.1, R -0.559 ± 0.099, K -0.685 ± 0.15, H -0.641 ± 0.25, N -0.836 ± 0.31, L -0.143 ± 0.036, D -0.841 ± 0.19, T -0.8 ± 0.28, P -0.555 ± 0.15, M -0.711 ± 0.16, G -0.899 ± 0.12, Q -0.849 ± 0.17, F -0.846 ± 0.24, A -0.274 ± 0.061, S -0.515 ± 0.17, I -0.507 ± 0.17, C -0.15 ± 0.072
C39: G -0.944 ± 0.18, R -0.987 ± 0.2, V -0.161 ± 0.066, N -0.848 ± 0.2, S -0.585 ± 0.11, A -0.504 ± 0.1, E -1.16 ± 0.36, I -0.766 ± 0.27, M -0.432 ± 0.1, F -0.466 ± 0.13, H -0.171 ± 0.093, W -0.841 ± 0.38, P -0.805 ± 0.2
V21: L 0.093 ± 0.049, M -0.207 ± 0.09, Y -0.033 ± 0.31, E -0.65 ± 0.16, F -0.392 ± 0.12, G -1.04 ± 0.18, T -0.964 ± 0.24, I -0.602 ± 0.43, K -0.493 ± 0.25, P -0.99 ± 0.23, C -0.707 ± 0.22, W -0.602 ± 0.092, H -0.996 ± 0.3, Q -0.834 ± 0.25, S -0.858 ± 0.2, R -0.864 ± 0.15, A -0.273 ± 0.08
K30: L -0.561 ± 0.087, P -0.957 ± 0.19, V -0.713 ± 0.094, W -0.969 ± 0.15, E -0.336 ± 0.088, R -0.006 ± 0.032, T -0.152 ± 0.095, Y -0.403 ± 0.13, Q -0.217 ± 0.063, I -0.63 ± 0.47, C -0.583 ± 0.13, F -0.574 ± 0.12, G -0.426 ± 0.053, A -0.218 ± 0.047, S -0.265 ± 0.075, N -0.478 ± 0.29, H -0.83 ± 0.29, M -0.288 ± 0.097
Y22: L -0.04 ± 0.047, K 0.012 ± 0.062, E -0.144 ± 0.085, D -0.83 ± 0.25, Q 0.041 ± 0.054, S 0.094 ± 0.053, P -0.95 ± 0.19, V -0.321 ± 0.057, R 0.11 ± 0.05, A 0.056 ± 0.058, H 0.024 ± 0.2, C -0.176 ± 0.12, W -0.069 ± 0.051, T -0.383 ± 0.13, M -0.142 ± 0.063, N -0.346 ± 0.15, G 0.105 ± 0.058
R32: F -0.009 ± 0.26, H 0.1 ± 0.18, K -0.369 ± 0.068, C -0.162 ± 0.21, Y -0.012 ± 0.19, E -0.193 ± 0.045, G -0.298 ± 0.053, L 0.046 ± 0.07, A 0.088 ± 0.063, W -0.203 ± 0.057, V 0.019 ± 0.055, I 0.188 ± 0.13, T -0.2 ± 0.08, N 0.141 ± 0.13, M 0.12 ± 0.06, P -0.59 ± 0.19, Q 0.065 ± 0.044, D -0.487 ± 0.34, S -0.141 ± 0.058
A28: F -0.122 ± 0.27, S -0.263 ± 0.067, L 0.029 ± 0.044, E -0.195 ± 0.13, D -0.371 ± 0.14, I -0.271 ± 0.29, P -0.15 ± 0.083, M -0.037 ± 0.087
